The assay addresses Pertuzumab, 2 weeks stressed in PBS, pH 7.4. Kind of assay: SPR; Biacore T200; pertuzumab immobilized on a Series S Protein A sensor chip (145 RU); single-cycle kinetics, five sequential injections of HER2 from 1.22 to 100 nM; phosphate-buffered saline with 0.05% Tween 20; flow 30 μL/min; 1:1 binding model.

Sequence of Pertuzumab, 2 weeks stressed in PBS, pH 7.4 (heavy, as listed by the source, chain 1 of 2): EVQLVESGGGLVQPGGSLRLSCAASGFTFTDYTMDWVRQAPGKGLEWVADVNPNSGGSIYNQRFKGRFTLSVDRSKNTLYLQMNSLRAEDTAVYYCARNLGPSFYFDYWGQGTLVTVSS
Sequence of Pertuzumab, 2 weeks stressed in PBS, pH 7.4 (light, as listed by the source, chain 2 of 2): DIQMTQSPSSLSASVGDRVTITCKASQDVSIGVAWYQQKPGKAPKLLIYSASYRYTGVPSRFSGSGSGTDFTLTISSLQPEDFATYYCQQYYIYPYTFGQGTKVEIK

With “Human HER2/ErbB2 protein, extracellular domain Thr23-Thr652, His Tag (from UniProt P04626 23-652) (domain or fragment)”, the Kd amounted to 2.3 nM.

For the origin of these results see paper PMC9979147.
